From article PMC3458822, “Dimerization of DOCK2 Is Essential for DOCK2-Mediated Rac Activation and Lymphocyte Migration” (PLoS ONE, 2012)

Experiments:
[1] = target: murine DOCK2 DHR-2 domain, wild type (murine); assay: SEC; Superdex 200 10/300 GL, 20 mM Tris-HCl pH 8.0, 250 mM NaCl, 5 mM 2-mercaptoethanol, 1 ml/minute, 20°C; size estimated against protein standards
[2] = target: the molecule itself; assay: crystal structure; human DOCK2 DHR-2 in complex with Rac1, PDB 3B13

| Molecule | stoichiometry N [1] | stoichiometry N [2] |
| --- | --- | --- |
| murine DOCK2 DHR-2 domain, wild type (domain or fragment) | 2 | – |
| human DOCK2 DHR-2 domain (domain or fragment, DOCK2, human, DHR-2 domain (lobes A, B and C) as crystallised with Rac1; Dimerises through lobe A in the crystal) SKDNRMSCTVNLLNFYKDNNREEMYIRYLYKLRDLHLDCDNYTEAAYTLLLHTWLLKWSDEQCASQVMQTGQQHPQTHRQLKETLYETIIGYFDKGKMWEEAISLCKELAEQYEMEIFDYELLSQNLIQQAKFYESIMKILRPKPDYFAVGYYGQGFPSFLRNKVFIYRGKEYERREDFQMQLMTQFPNAEKMNTTSAPGDDVKNAPGQYIQCFTVQPVLDEHPRFKNKPVPDQIINFYKSNYVQRFHYSRPVRRGTVDPENEFASMWIERTSFVTAYKLPGILRWFEVVHMSQTTISPLENAIETMSTANEKILMMINQYQSDETLPINPLSMLLNGIVDPAVMGGFAKYEKAFFTEEYVRDHPEDQDKLTHLKDLIAWQIPFLGAGIKIHEKRVSDNLRPFHDRMEECFKNLKMKVEKEYGVREM | – | 2 |
